Kd data for three molecules are collected here from patent US20230114801A1 (SYSTIMMUNE, published 2023).

T1: CD19 (UniProt P15391 20-291, limits assumed)
T1 sequence (looked up): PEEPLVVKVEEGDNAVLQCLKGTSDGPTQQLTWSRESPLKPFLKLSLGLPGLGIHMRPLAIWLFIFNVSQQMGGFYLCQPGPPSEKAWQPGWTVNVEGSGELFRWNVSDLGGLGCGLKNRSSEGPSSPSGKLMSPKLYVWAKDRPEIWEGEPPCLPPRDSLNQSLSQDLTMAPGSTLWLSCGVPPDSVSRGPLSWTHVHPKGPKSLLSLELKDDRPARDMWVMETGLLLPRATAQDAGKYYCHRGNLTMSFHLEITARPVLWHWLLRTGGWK

B1: SI-68P17 (other)
chain 1: DVVMTQSPSTLSASVGDRVTINCQASESISSWLAWYQQKPGKAPKLLIYEASKLASGVPSRFSGSGSGTEFTLTISSLQPDDFATYYCQGYFYFISRTYVNSFGGGTKVEIKGGGGSGGGGSGGGGSGGGGSEVQLVESGGGLVQPGGSLRLSCAASGFTISTNAMSWVRQAPGKGLEWIGVITGRDITYYASWAKGRFTISRDNSKNTLYLQMNSLRAEDTAVYYCARDGGSSAITSNNIWGQGTLVTVSSGGGGSGGGGSQVQLQQSGPGLVKPSETLSITCTVSGFSLTNYGVHWIRQAPGKGLEWLGVIWSGGNTDYNTPFTSRFTITKDNSKNQVYFKLRSVRADDTAIYYCARALTYYDYEFAYWGQGTLVTVSSASTKGPSVFPLAPSSKSTSGGTAALGCLVKDYFPEPVTVSWNSGALTSGVHTFPAVLQSSGLYSLSSVVTVPSSSLGTQTYICNVNHKPSNTKVDKRVEPKSCDKTHTCPPCPAPEAAGGPSVFLFPPKPKDTLMISRTPEVTCVVVDVSHEDPEVKFNWYVDGVEVHNAKTKPREEQYNSTYRVVSVLTVLHQDWLNGKEYKCAVSNKALPAPIEKTISKAKGQPREPQVYTLPPSRDELTKNQVSLSCAVKGFYPSDIAVEWESNGQPENNYKTTPPVLDSDGSFFLVSKLTVDKSRWQQGNVFSCSVMHEALHNHYTQKSLSLSPGGGGGSGGGGSDVVMTQSPSSVSASVGDRVTITCQASQNIRTYLSWYQQKPGKAPKLLIYAAANLASGVPSRFSGSGSGTDFTLTISDLEPGDAATYYCQSTYLGTDYVGGAFGGGTKLTVLGGGGSGGGGSGGGGSGGGGSEVQLVESGGGLVQPGGSLRLSCTASGFTISSYHMQWVRQAPGKGLEYIGTISSGGNVYYASSARGRFTISRPSSKNTVDLQMNSLRAEDTAVYYCARDSGYSDPMWGQGTLVTVSS
chain 2: ENVLTQSPASLSASPGERVTITCSASSSVSYMHWYQQKPGQAPKLWIYDTSKLASGVPSRFSGSGSGNDHTLTISSMEPEDFATYYCFQGSVYPFTFGQGTKVTVLGGGGSGGGGSGGGGSGGGGSQVTLKESGPGLVQPGQTLSLTCAFSGFSLSTSGMGVGWIRQPPGKGLEWLAHIWWDDDKRYNPALKSRLTISKDTSKNQVYLQMNSLDAEDTAVYYCARMELWSYYFDYWGQGTLVTVSSGGGGSGGGGSEIVLTQSPSTLSVSPGERATFSCRASQSIGTNIHWYQQKPGKPPRLLIKYASESISGIPDRFSGSGSGTEFTLTISSVQSEDFAVYYCQQNNNWPTTFGPGTKLTVLRTVAAPSVFIFPPSDEQLKSGTASVVCLLNNFYPREAKVQWKVDNALQSGNSQESVTEQDSKDSTYSLSSTLTLSKADYEKHKVYACEVTHQGLSSPVTKSFNRGECGGDKTHTCPPCPAPEAAGGPSVFLFPPKPKDTLMISRTPEVTCVVVDVSHEDPEVKFNWYVDGVEVHNAKTKPREEQYNSTYRVVSVLTVLHQDWLNGKEYKCAVSNKALPAPIEKTISKAKGQPREPQVYTLPPSRDELTKNQVSLWCLVKGFYPSDIAVEWESNGQPENNYKTTPPVLDSDGSFFLYSKLTVDKSRWQQGNVFSCSVMHEALHNRFTQKSLSLSPGGGGGSGGGGSDIQMTQSPSTLSASVGDRVTITCQASQSISSHLNWYQQKPGKAPKLLIYKASTLASGVPSRFSGSGSGTEFTLTISSLQPDDFATYYCQQGYSWGNVDNVFGGGTKVTVLGGGGSGGGGSGGGGSGGGGSEVQLLESGGGLVQPGGSLSLSCAASGFSFSSGYDMCWVRQAPGKGLEWIACIAAGSAGITYDANWAKGRFTISRDNSKNTLYLQMNSLRAEDTAVYYCARSAFSFDYAMDLWGQGTLVTVSS
notes: penta-miniGNC; D1 αCD3, D2 αCD19, D3 αEGFR (Fab), D4 α4-1BB, D5 αPD-L1
B2: SI-68P19 (other)
chain 1: DVVMTQSPSSLSASVGDRVTISCQASESISSWLAWYQQKPGQAPKLLIYEASKLASGVPSRFSGSGSGTEFTLTISSLEPEDFATYYCQGYFYFISRTYVNSFGGGTKVEIKGGGGSGGGGSGGGGSGGGGSQQLVESGGGLVKPGGSLRLSCAASGFTISTNAMSWVRQAPGKGLEWVGVITGRDITYYASWAKGRFTISKTSKNTVYLQMNSLRAEDTAVYYCARDGGSSAITSNNIWGQGTLVTVSSGGGGSGGGGSQVQLQQSGPGLVKPSETLSITCTVSGFSLTNYGVHWIRQAPGKGLEWLGVIWSGGNTDYNTPFTSRFTITKDNSKNQVYFKLRSVRADDTAIYYCARALTYYDYEFAYWGQGTLVTVSSASTKGPSVFPLAPSSKSTSGGTAALGCLVKDYFPEPVTVSWNSGALTSGVHTFPAVLQSSGLYSLSSVVTVPSSSLGTQTYICNVNHKPSNTKVDKRVEPKSCDKTHTCPPCPAPEAAGGPSVFLFPPKPKDTLMISRTPEVTCVVVDVSHEDPEVKFNWYVDGVEVHNAKTKPREEQYNSTYRVVSVLTVLHQDWLNGKEYKCAVSNKALPAPIEKTISKAKGQPREPQVYTLPPSRDELTKNQVSLSCAVKGFYPSDIAVEWESNGQPENNYKTTPPVLDSDGSFFLVSKLTVDKSRWQQGNVFSCSVMHEALHNHYTQKSLSLSPGGGGGSGGGGSDVVMTQSPSSVSASVGDRVTITCQASQNIRTYLSWYQQKPGKAPKLLIYAAANLASGVPSRFSGSGSGTDFTLTISDLEPGDAATYYCQSTYLGTDYVGGAFGGGTKLTVLGGGGSGGGGSGGGGSGGGGSEVQLVESGGGLVQPGGSLRLSCTASGFTISSYHMQWVRQAPGKGLEYIGTISSGGNVYYASSARGRFTISRPSSKNTVDLQMNSLRAEDTAVYYCARDSGYSDPMWGQGTLVTVSS
chain 2: B1 chain 2
notes: penta-miniGNC; D1 αCD3**** (humanized framework 3), D2 αCD19, D3 αEGFR (Fab), D4 α4-1BB, D5 αPD-L1
B3: SI-68P18 (other)
chain 1: DVQMTQSPSTLSATVGQRVTINCQASESISSWLAWYQQKPGQPPKLLIYEASKLASGVPSRFSGSGSGTEFTLTISSLQSDDFATYYCQGYFYFISRTYVNSFGGGTRVEIKGGGGSGGGGSGGGGSGGGGSQQLLESGGRLIKPGATLRLTCKTSGFTISTNAMSWVRQPPGKGLEWIGVITGRDITYYASWAKGRFTISKTSINTVFLQMRSLRAEDTAVYYCARDGGSSAITSNNIWGRGTLVTVSSGGGGSGGGGSQVQLQQSGPGLVKPSETLSITCTVSGFSLTNYGVHWIRQAPGKGLEWLGVIWSGGNTDYNTPFTSRFTITKDNSKNQVYFKLRSVRADDTAIYYCARALTYYDYEFAYWGQGTLVTVSSASTKGPSVFPLAPSSKSTSGGTAALGCLVKDYFPEPVTVSWNSGALTSGVHTFPAVLQSSGLYSLSSVVTVPSSSLGTQTYICNVNHKPSNTKVDKRVEPKSCDKTHTCPPCPAPEAAGGPSVFLFPPKPKDTLMISRTPEVTCVVVDVSHEDPEVKFNWYVDGVEVHNAKTKPREEQYNSTYRVVSVLTVLHQDWLNGKEYKCAVSNKALPAPIEKTISKAKGQPREPQVYTLPPSRDELTKNQVSLSCAVKGFYPSDIAVEWESNGQPENNYKTTPPVLDSDGSFFLVSKLTVDKSRWQQGNVFSCSVMHEALHNHYTQKSLSLSPGGGGGSGGGGSDVVMTQSPSSVSASVGDRVTITCQASQNIRTYLSWYQQKPGKAPKLLIYAAANLASGVPSRFSGSGSGTDFTLTISDLEPGDAATYYCQSTYLGTDYVGGAFGGGTKLTVLGGGGSGGGGSGGGGSGGGGSEVQLVESGGGLVQPGGSLRLSCTASGFTISSYHMQWVRQAPGKGLEYIGTISSGGNVYYASSARGRFTISRPSSKNTVDLQMNSLRAEDTAVYYCARDSGYSDPMWGQGTLVTVSS
chain 2: B1 chain 2
notes: penta-miniGNC; D1 αCD3*** (humanized framework 2), D2 αCD19, D3 αEGFR (Fab), D4 α4-1BB, D5 αPD-L1

The first assay deals with T2, human 4-1BB (human, UniProt Q07011 24-186, limits assumed).
T2 construct: Soluble antigen in Octet; construct not described
The assay can be described thus: BLI (Octet), binder on AHC sensor; antigen conditions not stated.
One may read the Kd as the constant that tells how readily two partners part at equilibrium. B1 registered a Kd of 26.8 nM.

B2 displayed a dissociation constant Kd of 21.2 nM.

On to B3, for which the equilibrium dissociation constant (Kd) was found to be 7.51 nM.

A further assay concerns the target T3, human PD-L1 (human, UniProt Q9NZQ7 19-238).
T3 construct: Soluble antigen in Octet; bought; also called human PD-L1 (Acro PD1-H5229)
The description is as above.
For B1, the Kd stood at 2.72 nM.

As for B2, binding was put at a Kd of 0.7 nM. Compared with the last molecule, the Kd is about 3.9-fold lower.

On to B3, for which binding was characterised by a dissociation constant (Kd) of 1 nM.

In a further assay the target is T1, CD19. The assay is described as above.
In turn, B1 had a Kd of 5.05 nM.

As for B2, the dissociation constant Kd was 3.44 nM. This Kd and that of the molecule before are within 1.5-fold of each other.

B3 had a Kd of 1.35 nM. Compared with the last molecule, the Kd is about 2.5-fold lower.

Another assay addresses T4, human CD3 (human, UniProt P07766 23-126; P04234 22-105).
T4 construct: also called His-tagged human CD3; human CD3 (Acro CDD-H52W1)
The assay can be described thus: BLI (Octet), binder on AHC sensor, His-tagged human CD3 (series from 200 nM or single 100 nM), 1:1 fit. In general terms: In BLI a coated tip is dipped into the sample, and binding shifts an interference pattern.
Molecule B1 had a Kd of 15.8 nM.

B2: the dissociation constant (Kd) turned out to be 16.7 nM. The Kd values of the last two molecules are within 1.5-fold of each other.

The molecule B3 came in with an equilibrium dissociation constant (Kd) of 14.5 nM.
